Experimental data: US20050074845A1 (Sanofi, published 2005)

Molecular target: T1, human GLUT4 (human, UniProt P14672 1-509, limits assumed)
T1 construct: The ubiquitin-half fusion partners and the limits of the construct are not described; also called Glut 4 transporter
T1 sequence (looked up): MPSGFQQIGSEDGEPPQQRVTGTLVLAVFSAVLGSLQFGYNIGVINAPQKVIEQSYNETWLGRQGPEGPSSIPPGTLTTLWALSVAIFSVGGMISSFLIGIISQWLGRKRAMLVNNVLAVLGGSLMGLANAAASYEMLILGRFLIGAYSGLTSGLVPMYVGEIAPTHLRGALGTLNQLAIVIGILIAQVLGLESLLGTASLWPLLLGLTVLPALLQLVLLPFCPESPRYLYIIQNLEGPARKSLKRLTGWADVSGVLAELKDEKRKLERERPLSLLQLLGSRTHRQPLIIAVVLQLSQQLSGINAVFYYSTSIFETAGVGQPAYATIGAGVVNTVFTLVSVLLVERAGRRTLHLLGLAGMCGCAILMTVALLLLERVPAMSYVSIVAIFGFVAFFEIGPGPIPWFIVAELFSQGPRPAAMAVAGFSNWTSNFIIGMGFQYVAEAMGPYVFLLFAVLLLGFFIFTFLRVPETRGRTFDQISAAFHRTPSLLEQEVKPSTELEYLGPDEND
Experiment: split-ubiquitin protein interaction assay in yeast

binding result: binds
B1: yeast Erg4 (enzyme)
chain: not shown
notes: The ubiquitin-half fusion partners and the limits of the construct are not described; also called Erg4 protein; sterol C-24(28)-reductase
